Data set [1] concerns the target T1, Dicer (human, UniProt Q9UPY3 1-1922).
T1 construct: Dicer, human endoribonuclease; also called endonuclease Dicer
Nature of the data set: SEC; gel filtration column chromatography of Dicer with the dsRBP or chimeric dsRBP, reconstituted from purified proteins. The conditions noted are these: both partners purified. A general note: SEC sorts molecules by how far they enter the pores of the column.
T1 sequence (Q9UPY3 whole entry): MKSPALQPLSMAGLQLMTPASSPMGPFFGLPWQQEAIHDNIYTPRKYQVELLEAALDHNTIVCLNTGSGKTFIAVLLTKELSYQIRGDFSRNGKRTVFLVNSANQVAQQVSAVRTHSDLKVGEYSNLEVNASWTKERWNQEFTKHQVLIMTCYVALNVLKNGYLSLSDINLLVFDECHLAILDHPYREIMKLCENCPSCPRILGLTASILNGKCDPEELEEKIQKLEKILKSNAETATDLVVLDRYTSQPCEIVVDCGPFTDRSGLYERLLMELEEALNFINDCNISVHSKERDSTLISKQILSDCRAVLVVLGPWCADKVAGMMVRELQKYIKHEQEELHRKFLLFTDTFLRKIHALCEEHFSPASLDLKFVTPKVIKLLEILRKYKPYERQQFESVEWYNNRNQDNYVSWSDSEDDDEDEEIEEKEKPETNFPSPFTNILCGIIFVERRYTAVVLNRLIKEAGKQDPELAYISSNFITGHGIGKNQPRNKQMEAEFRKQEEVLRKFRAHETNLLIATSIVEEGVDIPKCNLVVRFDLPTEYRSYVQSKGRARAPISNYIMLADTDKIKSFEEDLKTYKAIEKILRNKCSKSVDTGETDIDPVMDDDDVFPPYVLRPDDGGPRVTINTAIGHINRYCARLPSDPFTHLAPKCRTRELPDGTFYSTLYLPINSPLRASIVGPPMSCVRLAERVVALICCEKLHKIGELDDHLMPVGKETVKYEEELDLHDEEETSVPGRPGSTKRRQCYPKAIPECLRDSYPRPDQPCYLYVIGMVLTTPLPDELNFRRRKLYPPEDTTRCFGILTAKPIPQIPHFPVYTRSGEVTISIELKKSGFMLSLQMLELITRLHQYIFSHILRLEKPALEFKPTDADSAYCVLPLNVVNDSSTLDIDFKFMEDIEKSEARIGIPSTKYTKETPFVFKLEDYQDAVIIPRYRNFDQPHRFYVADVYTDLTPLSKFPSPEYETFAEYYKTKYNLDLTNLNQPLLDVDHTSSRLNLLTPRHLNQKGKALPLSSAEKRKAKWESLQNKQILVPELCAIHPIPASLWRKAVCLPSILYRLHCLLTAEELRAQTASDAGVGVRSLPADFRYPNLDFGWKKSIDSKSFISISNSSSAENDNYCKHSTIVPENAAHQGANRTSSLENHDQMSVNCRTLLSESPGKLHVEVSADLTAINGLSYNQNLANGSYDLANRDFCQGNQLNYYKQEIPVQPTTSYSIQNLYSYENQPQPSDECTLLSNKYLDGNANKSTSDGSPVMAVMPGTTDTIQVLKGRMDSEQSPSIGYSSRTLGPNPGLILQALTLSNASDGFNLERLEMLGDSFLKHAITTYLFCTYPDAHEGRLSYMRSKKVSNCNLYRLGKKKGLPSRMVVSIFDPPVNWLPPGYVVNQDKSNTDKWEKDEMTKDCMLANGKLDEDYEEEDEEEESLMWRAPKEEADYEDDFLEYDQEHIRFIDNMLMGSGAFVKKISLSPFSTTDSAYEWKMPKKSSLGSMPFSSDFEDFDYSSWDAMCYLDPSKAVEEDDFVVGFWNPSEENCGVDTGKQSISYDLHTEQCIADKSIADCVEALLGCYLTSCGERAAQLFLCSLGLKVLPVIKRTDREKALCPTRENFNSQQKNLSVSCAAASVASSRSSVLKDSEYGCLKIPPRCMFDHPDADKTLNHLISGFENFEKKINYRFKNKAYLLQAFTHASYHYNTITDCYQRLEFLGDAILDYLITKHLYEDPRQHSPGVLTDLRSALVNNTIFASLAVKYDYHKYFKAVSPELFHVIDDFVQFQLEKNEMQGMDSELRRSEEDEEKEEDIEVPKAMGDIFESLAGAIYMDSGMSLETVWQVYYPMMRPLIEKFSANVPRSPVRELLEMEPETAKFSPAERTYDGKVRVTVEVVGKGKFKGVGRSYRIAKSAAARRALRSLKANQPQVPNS

In data set [2] the target is T1, Dicer. Nature of the data set: native gel or EMSA; dsRNA A (0.5 uM) with 0, 0.5 or 1 uM protein or complex in 20 mM HEPES (pH 7.5), 300 mM KCl, 5% glycerol, 1 mM TCEP, on ice 45 min, 6% native PAGE, SYBR-Gold; the shift by the Dicer-dsRBP complex is compared with that by the dsRBP alone. The settings on record: both partners purified. For orientation: In EMSA bound probe runs differently from free probe, usually more slowly.

In the next data set the target is Dicer;TRBP (human;human, UniProt Q9UPY3;Q15633 1-1922;1-366, |). Description: EMSA; 0.5 uM dsRNA, up to 1 uM complex; Fig 1B: 20 mM HEPES pH 7.5, 300 mM KCl, 5% glycerol, 1 mM TCEP, on ice 45 min, 6% native PAGE; Fig S5: 20 mM Tris-HCl pH 6.5, 1.5 mM MgCl2, 25 mM NaCl, 1 mM DTT, 1% glycerol, on ice 60 min. The settings on record: protein: recombinant;recombinant; copies: 1;1.

Data set [3] has as its target Dicer (human, UniProt Q9UPY3 1-1922). Description: EMSA; 0.5 uM dsRNA, up to 1 uM protein; Fig 1B: 20 mM HEPES pH 7.5, 300 mM KCl, 5% glycerol, 1 mM TCEP, on ice 45 min, 6% native PAGE; Fig S5: 20 mM Tris-HCl pH 6.5, 1.5 mM MgCl2, 25 mM NaCl, 1 mM DTT, 1% glycerol, on ice 60 min. The settings on record: protein: recombinant.
Target sequence in this assay (Q9UPY3 whole entry): as above
The target in a further data set is T2, TRBP (human, UniProt Q15633 1-366).
T2 sequence: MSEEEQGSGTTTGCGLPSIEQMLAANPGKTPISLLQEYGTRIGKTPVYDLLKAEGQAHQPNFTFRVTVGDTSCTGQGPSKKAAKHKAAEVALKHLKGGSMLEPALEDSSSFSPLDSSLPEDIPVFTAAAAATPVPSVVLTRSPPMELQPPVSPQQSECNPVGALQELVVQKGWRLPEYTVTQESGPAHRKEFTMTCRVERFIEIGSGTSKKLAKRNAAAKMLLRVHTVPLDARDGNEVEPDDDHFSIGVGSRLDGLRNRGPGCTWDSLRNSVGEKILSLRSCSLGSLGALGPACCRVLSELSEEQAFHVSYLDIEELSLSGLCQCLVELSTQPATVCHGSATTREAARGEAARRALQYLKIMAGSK
The data set is described as above. The settings on record: protein: recombinant.

In the next data set the target is Dicer;PACT (human;human, UniProt Q9UPY3;O75569 1-1922;1-313, |). Description: EMSA; 0.5 uM dsRNA, up to 1 uM complex; shift distinct from PACT alone; Fig 1B: 20 mM HEPES pH 7.5, 300 mM KCl, 5% glycerol, 1 mM TCEP, on ice 45 min, 6% native PAGE; Fig S5: 20 mM Tris-HCl pH 6.5, 1.5 mM MgCl2, 25 mM NaCl, 1 mM DTT, 1% glycerol, on ice 60 min. The settings on record: protein: recombinant;recombinant; tags: ;His6-MBP removed by TEV; copies: 1;1.
Chain of Dicer;PACT (Q9UPY3 whole entry, one chain of several): as the sequence (Q9UPY3 whole entry) above

Chain of Dicer;TRBP (Q9UPY3 whole entry, one chain of several): as the sequence (Q9UPY3 whole entry) above

B1: protein activator of PKR (PACT) (natural protein, human, UniProt O75569 1-313, looked up)
chain: MSQSRHRAEAPPLEREDSGTFSLGKMITAKPGKTPIQVLHEYGMKTKNIPVYECERSDVQIHVPTFTFRVTVGDITCTGEGTSKKLAKHRAAEAAINILKANASICFAVPDPLMPDPSKQPKNQLNPIGSLQELAIHHGWRLPEYTLSQEGGPAHKREYTTICRLESFMETGKGASKKQAKRNAAEKFLAKFSNISPENHISLTNVVGHSLGCTWHSLRNSPGEKINLLKRSLLSIPNTDYIQLLSEIAKEQGFNITYLDIDELSANGQYQCLAELSTSPITVCHGSGISCGNAQSDAAHNALQYLKIIAERK
notes: called full-length; the chimeras' limits run to residue 313; source: purified (TEV cleavage, HiTrap-SP, Superdex-200)
In the case of B1, the binding result with Dicer [1] was “binds”.

B2: trans-activation response RNA-binding protein (TRBP) (natural protein, human, UniProt Q15633 1-366, looked up)
chain: MSEEEQGSGTTTGCGLPSIEQMLAANPGKTPISLLQEYGTRIGKTPVYDLLKAEGQAHQPNFTFRVTVGDTSCTGQGPSKKAAKHKAAEVALKHLKGGSMLEPALEDSSSFSPLDSSLPEDIPVFTAAAAATPVPSVVLTRSPPMELQPPVSPQQSECNPVGALQELVVQKGWRLPEYTVTQESGPAHRKEFTMTCRVERFIEIGSGTSKKLAKRNAAAKMLLRVHTVPLDARDGNEVEPDDDHFSIGVGSRLDGLRNRGPGCTWDSLRNSVGEKILSLRSCSLGSLGALGPACCRVLSELSEEQAFHVSYLDIEELSLSGLCQCLVELSTQPATVCHGSATTREAARGEAARRALQYLKIMAGSK
notes: called full-length; the chimeras' limits run to residue 366; removal of His6-MBP after TEV cleavage on a Ni-NTA column is told by comparison with the PACT purification
As to B2, the binding result in the data set with Dicer [2] is listed as “binds”.

B3: T12P3 (other, human, UniProt Q15633 1-232, looked up)
chain: MSEEEQGSGTTTGCGLPSIEQMLAANPGKTPISLLQEYGTRIGKTPVYDLLKAEGQAHQPNFTFRVTVGDTSCTGQGPSKKAAKHKAAEVALKHLKGGSMLEPALEDSSSFSPLDSSLPEDIPVFTAAAAATPVPSVVLTRSPPMELQPPVSPQQSECNPVGALQELVVQKGWRLPEYTVTQESGPAHRKEFTMTCRVERFIEIGSGTSKKLAKRNAAAKMLLRVHTVPLDAPENHISLTNVVGHSLGCTWHSLRNSPGEKINLLKRSLLSIPNTDYIQLLSEIAKEQGFNITYLDIDELSANGQYQCLAELSTSPITVCHGSGISCGNAQSDAAHNALQYLKIIAERK
notes: TRBP, human, residues 1-232 (dsRBD1, linker, dsRBD2); PACT, human, residues 197-313 (with dsRBD3); purified by the PACT method, which removes His6-MBP by TEV cleavage; also called chimeric protein T12P3; source: purified (HiTrap-Q flow-through, HiTrap-SP, then as PACT)
With B3, in the data set with Dicer [1], the binding result was “binds”.

B4: dsRNA A (dsRNA)
RNA 1: UGGCCUUGGGCAACGGUAAUU
RNA 2: UUACCGUUGCCCAAGGCCAUU
Turning to B4, the binding result is reported as “binds” with Dicer;TRBP, “no binding” with Dicer [3], “binds” in the data set with TRBP and “binds” with Dicer;PACT.
